We go through 4 molecules from article PMC8723827 (Cell, 2022).

Assay [1] addresses T1, His-tagged SARS-CoV-2 RBD (early pandemic, Wuhan) (SARS-CoV-2, UniProt P0DTC2). Briefly: SPR. The conditions noted are these: both partners purified.
The target of assay [2] is T1, His-tagged SARS-CoV-2 RBD (early …). Briefly: crystal structure. The conditions noted are these: both partners purified.

B1: EY6A mAb (IgG) (antibody, V domains shown)
VH: EVQLVESGGGVVQPGRSLRLSCAASAFTFSSYDMHWVRQAPGKGLEWVAVISYDGSNKYYADSVKGRFTISRDNSKNTLYLQMNSLRAEDTAVYYCAKDGGKLWVYYFDYWGQGTLVTVSS
VL: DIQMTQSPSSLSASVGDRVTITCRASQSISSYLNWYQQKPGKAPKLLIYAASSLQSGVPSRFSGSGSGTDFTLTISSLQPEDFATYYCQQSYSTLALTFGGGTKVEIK
The Kd is a measure of binding affinity in units of concentration. A low value points to higher affinity. As for B1, in assay [1], the Kd was 7.8 nM. In other words, the single-digit nanomolar range.

B2: mAb 58 Fab (COVOX-58) (Fab, V domains shown)
VH: QVQLVESGGGLVQPGRSLRLSCAASGFTFDDYAMHWVRQPPGKGLEWVSGVSWNSGTIGYADSVKGRFIISRDNAKNSLYLQMNSLKAEDTALYYCAREVGGTFGVLISREGGLDYWGQGTLVTVSS
VL: SYELTQPPSVSVAPGQTARITCGGNTIGSKSVHWYQQRPGQAPVLVVYDDSDRPSGIPERFSGSNSGNTATLTISRVEAGDEADYYCQVWDSSSDRVVFGGGTKLTVL
In the case of B2, in assay [2], the binding result is reported as “binds”.

B3: Beta-55 mAb (IgG) (antibody, V domains shown)
VH: QVQLQESGPGLVKPSETLSLTCTVSGDSISSSRYYWGWIRQPPGKGLEWIGTFYYSGITYYNPSLKSRVTIFVDTSKNQFSLKLSSVTAADTAVYYCARPRPPDYYDNSGALLFDIWGQGTMVTVSS
VL: AIRMTQSPSTLSASVGDRVTIACRASQSISAWLAWYQQKPGKAPKLLIYKASSLESGVPSRFSGSGSGTEFTLTINSLQPDDFATYYCQQYISSSPWTFGQGTKVEIK
B3 yielded a Kd in assay [1] of 0.177 nM.

B4: mAb 158 Fab (COVOX-158) (Fab, V domains shown)
VH: EVQLLESGGDLIQPGGSLRLSCAASGVTVSSNYMSWVRQAPGKGLEWVSIIYPGGSTFYADSVKGRFTISRDNSKNTLYLQMHSLRAEDTAVYYCARDLGSGDMDVWGKGTTVTVSS
VL: DIVMTQSPSFLSASVGDRVTITCRASQGISSYLAWYQQKPGKAPKLLIQAASTLQSGVPSRFSGSGSGTEFTLTISSLQPEDFATYYCQQLNSYRYTFGQGTKVEIK
Regarding B4, in assay [2], the binding result is on record as “binds”.
